Key:
[1] = target: T1, Nucleolin (MBP fusion, lacking N-terminal acidic stretches domain) (Homo sapiens, UniProt P19338 P19338:284-710); assay: filter; Bmax 60%; 60 mM KCl, 1 mM MgCl2; details: label: 32P; G4 mixed
Experimental: (§1) The assay also was conducted in a filter-binding format. In such forms of the assay, 0.2 nM of ³²P-labeled quadruplexes were incubated in 50 uL of the binding buffer (12.5 mM Tris-HCl, pH 7.6, 60 mM KCl, 1 mM MgCl2, 0.1 mM EDTA, 5% glycerol, 0.1 mg/mL BSA) for 10 min at 85 C and then for 10 min on ice and mixed with another 50 uL of binding buffer containing increasing amounts of recombinant protein Nucleolin. The protein-quadruplex mixtures were incubated for 30 min at ambient temperature and filtered through mixed cellulose ester membrane filters (Millipore) with gentle suction. The filters were washed twice with […] of binding buffer, dried and OptiPhase ‘SuperMix’ scintillation cocktail (Perkin Elmer) was added to the wells. Radioactivity was assayed with MicroBeta scintillation counter (Perkin Elmer). Binding curves were constructed and apparent Kd's and Bmax's for the complexes were calculated using the GraphPad Prizm software program (GraphPad Software). […]

[2] = target: T1, Nucleolin (MBP fusion, lacking …); assay: EMSA; details: label: 32P; G4 antiparallel
Experimental: The following assays assessed effects of compounds on interactions between nucleolin and nucleic acid ligands capable of forming quadruplex (QP) and hairpin (HP) secondary structures. Nucleic acid ligands tested were a cMyc QP DNA having nucleotide sequence 5′-[…]-3′ (SEQ ID NO: 176) and a HP pre-rRNA region to which nucleolin binds, having the sequence 5′-[…]-3′ (SEQ ID NO: 177). In the assays, recombinant nucleolin (˜250 nM), which was fused to maltose binding protein and had the sequence under accession number NM_{—}005381 without the N-terminal acidic stretches domain, was incubated with each of the two ³²P-labeled nucleic acid ligands (10 or 250 nM). Nucleolin and the nucleic acid ligand were incubated in the presence or absence of a test compound of Formula A-1, B-1, C-6 or C-7 in an incubation buffer (12.5 mM Tris, pH 7.6, 60 mM KCl, 1 mM MgCl₂, 0.1 mM EDTA, 1 mM DTT, 5% glycerol, 0.1 mg/ml BSA) for 30 minutes at room temperature. […]
The assay also was conducted using nucleic acid ligands derived from human ribosomal DNA. […] It was determined from these assays that compound A-1, but not Actinomycin D, interfered with nucleolin/nucleic acid ligand interactions. […]

[3] = target: T1, Nucleolin (MBP fusion, lacking …); assay: filter; Bmax 51%; 60 mM KCl, 1 mM MgCl2; details: label: 32P; G4 parallel
Experimental: as §1

[4] = target: T1, Nucleolin (MBP fusion, lacking …); assay: filter; Bmax 68%; 60 mM KCl, 1 mM MgCl2; details: label: 32P; G4 parallel
Experimental: as §1

[5] = target: T1, Nucleolin (MBP fusion, lacking …); assay: filter; Bmax 13%; 60 mM KCl, 1 mM MgCl2; details: label: 32P; G4 antiparallel
Experimental: as §1

[6] = target: T1, Nucleolin (MBP fusion, lacking …); assay: EMSA; complex disrupted by compounds A-1, B-1, C-6, C-7; 60 mM KCl, 1 mM MgCl2, room temperature; details: label: 32P; G4
Experimental: The following assays assessed effects of compounds on interactions between nucleolin and nucleic acid ligands capable of forming quadruplex (QP) and hairpin (HP) secondary structures. Nucleic acid ligands tested were a cMyc QP DNA having nucleotide sequence 5′-[…]-3′ (SEQ ID NO: 176) and a HP pre-rRNA region to which nucleolin binds, having the sequence 5′-[…]-3′ (SEQ ID NO: 177). In the assays, recombinant nucleolin (˜250 nM), which was fused to maltose binding protein and had the sequence under accession number NM_{—}005381 without the N-terminal acidic stretches domain, was incubated with each of the two ³²P-labeled nucleic acid ligands (10 or 250 nM). Nucleolin and the nucleic acid ligand were incubated in the presence or absence of a test compound of Formula A-1, B-1, C-6 or C-7 in an incubation buffer (12.5 mM Tris, pH 7.6, 60 mM KCl, 1 mM MgCl₂, 0.1 mM EDTA, 1 mM DTT, 5% glycerol, 0.1 mg/ml BSA) for 30 minutes at room temperature. Structures for A-1 and B-1 are shown above and structures for C-6 and C-7 are shown hereafter: The resulting complexes were separated on a 6% DNA retardation gel using 0.5× TBE with 20 mM KCl as a running buffer (i.e., electrophoresis mobility shift assay (EMSA)).

[7] = target: T1, Nucleolin (MBP fusion, lacking …); assay: filter; Bmax 100%; 62-mer printed here, Example 6 table prints a shorter sequence under the same name; details: label: 32P; G4 mixed
Experimental: as §1

[8] = target: T1, Nucleolin (MBP fusion, lacking …); assay: EMSA; random single-stranded control; details: label: 32P, no quadruplex
Experimental: In the assays, recombinant nucleolin (˜250 nM), which was fused to maltose binding protein and had the sequence under accession number NM_{—}005381 without the N-terminal acidic stretches domain, was incubated with each of the two ³²P-labeled nucleic acid ligands (10 or 250 nM). Nucleolin and the nucleic acid ligand were incubated in the presence or absence of a test compound of Formula A-1, B-1, C-6 or C-7 in an incubation buffer (12.5 mM Tris, pH 7.6, 60 mM KCl, 1 mM MgCl₂, 0.1 mM EDTA, 1 mM DTT, 5% glycerol, 0.1 mg/ml BSA) for 30 minutes at room temperature. Structures for A-1 and B-1 are shown above and structures for C-6 and C-7 are shown hereafter: The resulting complexes were separated on a 6% DNA retardation gel using 0.5× TBE with 20 mM KCl as a running buffer (i.e., electrophoresis mobility shift assay (EMSA)).
The assay also was conducted using nucleic acid ligands derived from human ribosomal DNA. Sequences of these nucleic acids are shown in the preceding example. It was determined from these assays that compound A-1, but not Actinomycin D, interfered with nucleolin/nucleic acid ligand interactions. […] A “+” represents the weakest nucleolin affinity and least interference by compound A-1 and a “++++” represents the strongest nucleolin affinity and greatest interference by compound A-1.

T1 sequence (P19338 284-710, one chain of several): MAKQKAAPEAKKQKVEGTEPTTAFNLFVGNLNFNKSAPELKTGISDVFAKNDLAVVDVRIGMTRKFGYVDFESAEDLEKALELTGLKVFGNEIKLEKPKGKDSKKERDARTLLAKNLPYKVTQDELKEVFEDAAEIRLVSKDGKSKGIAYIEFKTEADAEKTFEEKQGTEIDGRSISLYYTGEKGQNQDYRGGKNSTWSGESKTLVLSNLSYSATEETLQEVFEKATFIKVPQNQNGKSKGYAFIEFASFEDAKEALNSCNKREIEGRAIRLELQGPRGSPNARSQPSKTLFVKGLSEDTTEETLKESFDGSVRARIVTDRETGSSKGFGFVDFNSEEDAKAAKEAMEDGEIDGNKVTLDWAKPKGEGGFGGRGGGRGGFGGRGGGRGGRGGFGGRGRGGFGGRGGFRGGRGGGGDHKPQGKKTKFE

Binder: GGGTCCGGAAGGGGAAGGGTGCCGGCGGGGAGAGAGGGTCGGGGG (structured_DNA) [7253NT]
- Kd [1]: 0.4 nM

Binder: GGGCTGGGTCGGTCGGGCTGGGG (structured_DNA) [10816NT]
- binding result [2]: no binding

Binder: GGGCGGGGGGGGCGGGGGG (structured_DNA) [6534NT]
- Kd [3]: 1.1 nM

Binder: GGGTGGCGGGGGGGAGAGGGGGG (structured_DNA) [6960NT]
- Kd [4]: 0.5 nM

Binder: GGGAGGGCGCGCGGGTCGGGG (structured_DNA) [8749NT]
- Kd [5]: 1.9 nM

Binder: TGGGGAGGGTGGGGAGGGTGGGGAAGG (structured_DNA) [cMyc QP DNA]
- binding result [6]: binds

B1: 8511NT (structured_DNA)
DNA: GGGGGCGGGCTCCGGCGGGTGCGGGGGTGGGCGGGCGGGGCCGGGGGTGGGGTCGGCGGGGG
- Kd [7]: 0.6 nM

Binder: GTCGTAACGTCGATCAGTTTACGACAT (ssDNA) [RND27]
- binding result [8]: no binding

From patent US20070117770, “Human ribosomal DNA (rDNA) and ribosomal RNA (rRNA) nucleic acids and uses thereof” (Cylene Pharmaceuticals, Inc., published 2007)
